Results on one substance are retold here after article PMC5770551.

The target in the assay is CbpAC (pneumococcal surface protein C variant) of nonencapsulated Streptococcus pneumoniae strain MNZ41 (Streptococcus pneumoniae (nonencapsulated strain MNZ41)). Nature of the assay: flow cytometry on cells; 10^7 CFU viable pneumococci incubated with 200 µl of 10 µg/ml nonspecific mouse IgA for 1 h on ice; detected with biotinylated goat anti-mouse IgA and streptavidin-Alexa Fluor 488; percent positive cells gated above background.

nonspecific mouse IgA (antibody) yielded a percent positive cells (MNZ41 bacteria expressing CbpAC) of 58.6%.
